Assay results published in article PMC11287265.

Molecular target: SHP2 N-terminal SH2 domain, T42A (human)
Test: fluorescence polarisation

“fluorescent phosphopeptide derived from pTyr1179 of insulin receptor substrate 1 (IRS-1)” was tested, and the fold tighter binding against N-SH2 WT was 5 fold.
